Source: patent US20050148069A1, “IGF-1 instructs multipotent adult CNS neural stem cells to an oligodendroglial lineage” (priority 2003, published 2005)

System: adult hippocampus-derived neural progenitor cells
Experiment: in vitro differentiation analysis of neural progenitor cells (immunocytochemistry for lineage markers)
Format: cell-based, rat
Method: The neural progenitor cells isolated from the hippocampus of female Fischer 344 used in this study have been characterized previously (Gage et al., 1995; Palmer et al., 1997). The whole brain-derived neural stem cells from PIO ICR mice were isolated and cultured according to the methods as described, with slight modifications. Cells were cultured as previously described (Gage et al., 1995; Ray et al., 1993). Cells between passages 10 and 20 were used for in vitro differentiation analyses. To induce differentiation, cells were plated into 4-well chamber slides at a density of 55,000-75,000 cells per well and were allowed to proliferate in N2-supplemented (Invitrogen) DMEM:F12 (Omega Scientific) medium containing 20 ng/ml FGF-2 (PeproTech, Inc.) for 24 hours. FGF-2 was then withdrawn and cells were subsequently treated with differentiation media. […] For IGF-induction experiments, cells were trypsinized, washed with 1× PBS, and plated into insulin-free N2 medium. […] In some cultures, BrdU (2.5 μM, Sigma) was added to label dividing cells, and Q-VD-OPh (2 μM, Enzyme Systems Products) was added to prevent apoptosis.
Cells were fixed with 4% paraformaldehyde, followed by immunocytochemical staining as described (Palmer et al., 1999). Labeled cells were visualized using a Nikon E800 upright microscope or a Nikon E600 inverted microscope (Nikon Inc.) and a Spot RT CCD camera (Diagnostic Instruments Inc.). 4′,6-diamidino-2-phenylindole (DAPI) was used to identify individual cells. Quantification of cell phenotypes was with StereoInvestigator (MicroBrightfield Inc.); for each marker, 500-1000 cells were sampled systematically from standardized fields at 40×magnification. For quantification of live/dead cells, images were taken of cultures live-stained with propidum iodide (1 μg/ml; Molecular Probes) and Hoescht 33342 (1 μg/ml; Sigma) at 10×magnification, and cells were counted using Image-Pro (Media Cybernetics). The following primary antibodies were used: rabbit anti-Tuj1 (1:7500;Covance), mouse anti-RIP (1:25-1:75; Hybridoma Bank); guinea pig anti-GFAP (1:500-1:2500; Advanced Immunochemical, Inc.); rabbit anti-MBP (1:500; Chemicon International Inc.), rat anti-BrdU (1:400; Accurate). Secondary antibodies were all from Jackson ImmunoResearch and used at 1:250 dilution. The detection of BrdU in cultured cells required treatment in 2 N HCL at 37° C. for 30 min (Palmer et al., 1999). All experiments were independently replicated at least 3 times.

B1: Noggin: extracellular protein that binds BMP ligands, BMP antagonist (protein, UniProt Q13253 28-232, looked up)
Noggin: QHYLHIRPAPSDNLPLVDLIEHPDPIFDPKEKDLNETLLRSLLGGHYDPGFMATSPPEDRPGGGGGAAGGAEDLAELDQLLRQRPSGAMPSEIKGLEFSEGLAQGKKQRLSKKLRRKLQMWLWSQTFCPVLYAWNDLGSRFWPRYVKVGSCFSKRSCSVPEGMVCKPSKSVHLTVLRWRCQRRGGQRCGWIPIQYPIISECKCSC
differentiation or survival effects of Noggin alone (500 ng/ml Noggin alone, insulin-free media): did not display any enhanced differentiation or survival effects | reversal of BMP2 inhibition of oligodendrocyte differentiation (Noggin 500 ng/ml with BMP2 50 ng/ml and IGF-I 500 ng/ml): efficiently reversed the inhibitory effects of BMP signaling | percentage of oligodendrocytes vs IGF-I alone (Noggin 500 ng/ml with IGF-I 20-100 ng/ml): significant increase in the percentage of oligodendrocytes | percentage of RIP+ oligodendrocytes vs IGF-I alone (Noggin 500 ng/ml with IGF-I 500-1000 ng/ml): did not result in a significant change
